The supplement of paper PMC10126150
± gives the standard deviation of the averaged measurements.

These sequences were tested on ATP (assay: switch fluorescence ratio, 500 uM ATP over buffer (Cy3 cluster intensity, sum of 5 cycles each) (fold (ratio)); higher = stronger signal-on switching upon ATP binding; sequences stand for … in TCGTCGGCAGCGTCAGATGTGTATAAGAGACAGTTTTTTTTTTTTTTTTTTTTTTTTT…TC). Settings: aptamer strand: ATP DNA aptamer (quencher-CACCTGGGGGAGTATTGCGGAGGAAGG + anchor), 100 nM annealed; ATP concentration: 500 uM.
Method in brief: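 Clusters with intensities outside 100-1000 RFU were excluded. The remaining Cy3-labelled switching-strand clusters on a modified Illumina MiSeq flow-cell had been annealed to 100 nM quencher-labelled ATP aptamer and imaged in selection buffer, then after 15 min with 500 uM ATP at 22 °C, for five cycles separated by NaOH stripping and re-annealing. The fluorescence ratio, averaged per switch-domain sequence, is each cluster's summed target-cycle Cy3 intensity over its summed buffer-cycle Cy3 intensity.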
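Further: ATP exposure 15 min at 22 °C before imaging.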

| Sequence | switch fluorescence ratio |
| --- | --- |
| CCAGGAGGGG | 1.04 ± 0.012 |
| CCAGGCGATT | 1.07 ± 0.095 |
| CCAGGCTAAT | 1.03 ± 0.014 |
| CCAGGGAGGG | 1.06 ± 0.051 |
| CCAGGGATCA | 1.049 ± 0.0023 |
| CCAGGGCGCG | 1.004 ± 0.002 |
| CCAGGGGTAA | 1.17 ± 0.055 |
| CCAGGGGTCT | 1.22 ± 0.028 |
| CCAGGGGTTT | 2.66 ± 2.4 |
| CCAGGTCTAT | 1.08 ± 0.018 |
| CCAGTATTTT | 0.999 ± 0.015 |
| CCAGTCATCA | 0.9961 ± 0.0014 |
| CCAGTCGGAG | 0.9776 ± 0.0038 |
| CCAGTGACAT | 1.03 ± 0.028 |
| CCAGTGGCTA | 1.016 ± 0.0033 |
| CCAGTGTCGG | 0.969 ± 0.04 |
| CCAGTTACGG | 1.032 ± 0.01 |
| CCAGTTAGCC | 1.04 ± 0.13 |
| CCAGTTTCGG | 0.983 ± 0.049 |
| CCAGTTTGGA | 0.998 ± 0.017 |
| CCATACGTTG | 1.037 ± 0.0051 |
| CCATACGTTT | 1.02 ± 0.046 |
| CCATATCTAT | 1 ± 0.029 |
| CCATCAGGG | 1.16 ± 0.042 |
| CCATCTGCGC | 1.82 ± 0.074 |

| Sequence | switch fluorescence ratio |
| --- | --- |
| CCATGCAGGC | 1.28 ± 0.13 |
| CCATGGATCA | 0.9992 ± 0.0091 |
| CCATGGGTAG | 0.974 ± 0.056 |
| CCATGGTAGT | 1.028 ± 0.0029 |
| CCATGGTTAC | 2.67 ± 2.3 |
| CCATGTAAGA | 1.018 ± 0.0091 |
| CCATGTGTTG | 1.03 ± 0.043 |
| CCATGTTGAG | 0.997 ± 0.0086 |
| CCATGTTTGT | 1.01 ± 0.028 |
| CCATTATGGT | 1.01 ± 0.03 |
| CCATTCAGGT | 1.04 ± 0.065 |
| CCATTCATAG | 0.973 ± 0.022 |
| CCATTGAATG | 1.02 ± 0.015 |
| CCATTGATGT | 1.02 ± 0.023 |
| CCATTTGACC | 1.04 ± 0.014 |
| CCATTTGTT | 1.04 ± 0.035 |
| CCATTTTTGG | 0.992 ± 0.011 |
| CCCAATAGTG | 1.35 ± 0.042 |
| CCCACTACAT | 1.06 ± 0.035 |
| CCCAGGCCCG | 1.058 ± 0.0088 |
| CCCATCTTTT | 1 ± 0.0025 |
| CCCATGCAAG | 1.3 ± 0.32 |
| CCCATGCCCG | 1.04 ± 0.021 |
| CCCATGTTTC | 1.02 ± 0.023 |
| CCCCGAGGAT | 1.14 ± 0.022 |

| Sequence | switch fluorescence ratio |
| --- | --- |
| CCCCTTGTTC | 1.01 ± 0.02 |
| CCCGAAGTCT | 1.05 ± 0.012 |
| CCCGAGCCTC | 1.36 ± 0.1 |
| CCCGAGTTAT | 1.067 ± 0.01 |
| CCCGATGCGC | 1.42 ± 0.51 |
| CCCGGAAGTG | 1.24 ± 0.018 |
| CCCGGCGAT | 1.85 ± 1.2 |
| CCCGGGAAAA | 0.943 ± 0.03 |
| CCCGGGGGGA | 1.55 ± 0.7 |
| CCCGGGGTGT | 3.55 ± 0.15 |
| CCCGTAGTTA | 1.19 ± 0.042 |
| CCCGTGGGGA | 1.2 ± 0.15 |
| CCCGTTGGTT | 1.27 ± 0.34 |
| CCCGTTTGGG | 0.981 ± 0.023 |
| CCCTAACCCG | 1.18 ± 0.055 |
| CCCTAGGTTT | 1.73 ± 0.79 |
| CCCTCACTTA | 1.08 ± 0.049 |
| CCCTGGGGGT | 1.15 ± 0.067 |
| CCCTGGTGGG | 1.04 ± 0.11 |
| CCCTTAGTGC | 1.14 ± 0.022 |
| CCCTTAGTGT | 1.04 ± 0.031 |
| CCCTTTATTT | 1.29 ± 0.36 |
| CCCTTTTTAT | 0.986 ± 0.014 |
| CCGAAAATGA | 1.35 ± 0.49 |
| CCGAAGACAG | 3.11 ± 0.21 |

| Sequence | switch fluorescence ratio |
| --- | --- |
| CCGAAGGGGT | 1.18 ± 0.16 |
| CCGAAGGGTT | 1.02 ± 0.077 |
| CCGAGAGGGT | 1.06 ± 0.069 |
| CCGAGGGTG | 1.81 ± 0.098 |
| CCGAGGTATC | 3.23 ± 2.1 |
| CCGAGTGGGC | 1.09 ± 0.012 |
| CCGATACGGG | 1.072 ± 0.0082 |
| CCGATGATTT | 1.5 ± 0.56 |
| CCGATTTGGC | 1.14 ± 0.044 |
| CCGCATGCTT | 2.76 ± 2 |
| CCGCCGGGGG | 1.09 ± 0.041 |
| CCGCGAGGGT | 1.57 ± 0.29 |
| CCGCGGGATT | 1.28 ± 0.32 |
| CCGCGGGGAG | 1.1 ± 0.041 |
| CCGCTAGCCT | 2.94 ± 0.53 |
| CCGCTTAGAT | 2.34 ± 0.23 |
| CCGGAAATGA | 1.02 ± 0.054 |
| CCGGACTCTT | 1.11 ± 0.015 |
| CCGGAGGGGA | 1.27 ± 0.18 |
| CCGGATAGTG | 1.03 ± 0.026 |
| CCGGCAGGAT | 0.988 ± 0.011 |
| CCGGGACAGC | 1.17 ± 0.077 |
| CCGGGAGCGC | 1.98 ± 0.83 |
| CCGGGGAATC | 2.19 ± 0.57 |
| CCGGGGACCC | 1.13 ± 0.08 |
